# According to US20220024991A1 (GENOME PROTECTION, published 2022):
# B1: entolimod/CBLB502 (ligand)
# chain: not shown
# Target: human TLR5 (293-hTLR5-LacZ reporter cells) (human, UniProt O60602 21-858)
# Experiment: cell-based or functional assay
# Sequence of human TLR5 (293-hTLR5-LacZ reporter cells) (O60602 21-858): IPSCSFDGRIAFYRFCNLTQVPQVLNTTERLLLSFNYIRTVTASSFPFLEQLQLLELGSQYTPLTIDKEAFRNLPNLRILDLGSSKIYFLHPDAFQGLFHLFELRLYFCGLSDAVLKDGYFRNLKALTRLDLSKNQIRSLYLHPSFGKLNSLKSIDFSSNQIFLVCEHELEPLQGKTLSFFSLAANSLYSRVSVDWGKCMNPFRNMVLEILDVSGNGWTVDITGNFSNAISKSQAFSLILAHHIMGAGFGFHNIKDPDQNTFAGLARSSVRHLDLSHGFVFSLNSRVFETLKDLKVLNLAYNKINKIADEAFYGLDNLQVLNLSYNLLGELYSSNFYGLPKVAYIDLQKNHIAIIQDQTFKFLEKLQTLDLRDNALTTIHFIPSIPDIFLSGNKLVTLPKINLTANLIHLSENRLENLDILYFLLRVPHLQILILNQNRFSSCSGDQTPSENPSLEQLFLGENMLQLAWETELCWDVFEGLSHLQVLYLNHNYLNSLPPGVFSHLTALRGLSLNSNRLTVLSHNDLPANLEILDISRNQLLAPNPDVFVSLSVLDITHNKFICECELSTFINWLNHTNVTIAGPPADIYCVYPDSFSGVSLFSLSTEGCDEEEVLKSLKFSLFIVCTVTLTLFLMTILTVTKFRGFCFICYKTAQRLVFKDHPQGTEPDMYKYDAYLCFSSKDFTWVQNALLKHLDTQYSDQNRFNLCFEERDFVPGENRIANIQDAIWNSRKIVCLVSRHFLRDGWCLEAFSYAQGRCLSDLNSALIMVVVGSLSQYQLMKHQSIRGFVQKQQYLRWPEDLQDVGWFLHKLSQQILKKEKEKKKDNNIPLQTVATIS
binder,measurement,value
B1,"EC50, ng/ml (NF-κB reporter enzyme activity)",0.032 ng/mL
same,"EC50, pM (NF-κB reporter enzyme activity)",0.92 pM
